Blank lines part the entries; values can stand above or below the molecule they belong to.
Columns and labels:
[1] = biological target: human Siglec-7 expressed on human cells (primary monocytes, dendritic cells, macrophages, NK cells, microglia, U937 cells, human cells of humanized mice) (human) (UniProt Q9Y286); test: cell-based or functional assay
[2] = biological target: human Siglec-7 expressed on human cells (primary monocytes, dendritic cells, macrophages, NK cells, microglia, U937 cells, human cells of humanized mice) (human) (UniProt Q9Y286); test: FACS, human primary dendritic cells; isotype control (background)
[3] = biological target: human Siglec-7 expressed on human cells (primary monocytes, dendritic cells, macrophages, NK cells, microglia, U937 cells, human cells of humanized mice) (human) (UniProt Q9Y286); test: FACS, human primary macrophages; isotype control (background)
[4] = biological target: human Siglec-7 expressed on human cells (primary monocytes, dendritic cells, macrophages, NK cells, microglia, U937 cells, human cells of humanized mice) (human) (UniProt Q9Y286); test: FACS, human primary monocytes; isotype control (background)
[5] = biological target: T1, Histidine-tagged human Siglec-7 (NovoProtein) (human, UniProt Q9Y286 19-357, limits assumed); test: SPR (BiaCore T200, 25 C), antibody captured on anti-mouse IgG, Siglec-7-His 100 nM, single-concentration kinetics
T1 construct: Bought protein; also called purified Siglec-7-his tagged protein; not shown: histidine tag
Experimental: SPR data was collected at a rate of 10 Hz at 25′ C on a BiaCore T200 instrument. Data analysis was performed using BiaCore T200 Evaluation Software, version 2.0. HBS-EP+ (100 mM HEPES, 1.5 M NaCl, 30 mM EDTA, 0.5% v/v Surfactant P20, pH 7.4) was used as running buffer and for preparing reagents.
Mouse-derived antibodies (25 nM) against Siglec-7 were captured (60 s contact time, 30 μL/min flow rate, 0 s stabilization time) on a CM5 sensor chip (GE Healthcare) immobilized with anti-mouse IgG. Histidine-tagged human Siglec-7 (NovoProtein) was then flowed over the captured anti-Siglec-7 surface (120 s contact time, 30 μL/min flow rate, 300 s dissociation time). Concentration of antigen ranged from 5 nM to 100 nM, depending on information obtained from an initial screen. Duplicate single-concentration trials were performed and bracketed by a blank (0 nM antigen) sample. The chip surface was regenerated in between cycles using 10 mM glycine-HCl, pH1.7 (60 s contact time, 30 μL/min flow rate, 60 s stabilization time). The resulting SPR signal was obtained as the difference in response from measurements performed on a blank flow cell.
Affinity constants (KD) were calculated from the ratio kd/kₐ. For one antibody (clone 1E8), we validated the single-concentration analysis with a multiple-concentration approach (five concentrations of antigen used, plus one blank).

[6] = biological target: T2, Siglec-7-Fc (plate immobilized) (human, UniProt Q9Y286 19-357, limits assumed); test: RBC solid adhesion assay, plate-coated Siglec-7-Fc, antibody 0.5 or 1.0 ug/ml; % of RBC binding without antibody
T2 construct: also called Siglec-7-Fc protein; immobilized Siglec-7; not shown: Fc part
Experimental: To determine which antibodies compete with ligand binding to Siglec-7, a red blood cell (RBC) solid adhesion assay was carried out in accordance with standard protocols (Kelm et al., Current Biology, 1994). Red blood cells are highly decorated with glycoproteins containing sialic acids: therefore, the ability of an antibody to block RBC binding to immobilized Siglec-7 can be used to determine ligand interference. Briefly, 5 μg/ml Siglec-7-Fc was coated overnight at RT in 96 well Immunolon plates, then washed with PBS, blocked for one hour with binding buffer (PBS containing %0.25 BSA 1 mM CaCl₂), Siglec-7 antibodies (0.5 μg/ml or 1.0 μg/ml) were bound for one hour at RT with gentle rocking. After removal of unbound antibody, red blood cells were added to each well at a concentration of 3.0×10⁶ cells per ml and incubated at RT for one hour. Unbound RBCs were then carefully washed off 3× with PBS, and water was added to each well for hypotonic lysis of bound RBCs. The plate was transferred to −80° C. for 10 minutes, followed by 37° C. for 15 minutes. Bound RBCs were detected by peroxidase activity, followed by 2N sulfuric acid to stop the reaction. Signal was detected at […]. Data was calculated as a percent of RBC binding to plate bound Siglec-7-Fc in the absence of antibody.

[7] = biological target: T3, human Siglec-7 expressed on human cells (primary monocytes, dendritic cells, macrophages, NK cells, … (human, UniProt Q9Y286 19-467)); test: cell-based or functional assay
[8] = biological target: T3, human Siglec-7 expressed on human cells …; test: cell-based or functional assay; remark: listed apart in the source
[9] = biological target: T3, human Siglec-7 expressed on human cells …; test: FACS, human primary macrophages, 10 ug/ml mAb
Experimental: (§1) Initial characterization of Siglec-7 antibodies involved determining their ability to bind Siglec-7 expressed on human primary monocytes, human primary macrophages, human primary dendritic cells, human primary neutrophils, and human primary natural killer (NK) cells. Cells were harvested, plated at 10⁶/ml in a 96 well plate, and incubated in 100 ul PBS containing 2% FBS, 2 mM EDTA and 10 μg/ml Mab and Fc blocking reagent for 1 hour in ice. Cells were washed twice and incubated in 100 ul PBS containing 2% FBS, 2 mM EDTA and 5 ug/ml PE-conjugated secondary antibody for 30 minutes on ice. Cells were washed twice in cold PBS and analyze by flow cytometry on a BD FACS Canto. Data analysis and calculation of MFI values was performed with FlowJo (TreeStar) software version 10.0.7.
(§2) Percent positive binding and mean fluorescent intensity (MFI) values for cell types bound by Siglec-7 antibodies are listed in Table 4A. Binding is compared to an isotype control. The antibodies bind to human primary monocytes, human primary dendritic cells, and human primary macrophages. In Table 4A, “Buffer” refers to cells that were treated only with the PBS buffer described supra; “Secondary Ab” refers to cells that were treated only with the PE-conjugated secondary antibody; “mIgG1,” “mIgG2a,” and “mIgG2b” refer to isotype control antibodies; and “RDS7” refers to commerically available anti-Siglec-7 antibody Mab1138 (R&D Systems; Cat. No. MAB 1138).

[10] = biological target: T3, human Siglec-7 expressed on human cells …; test: FACS, human primary dendritic cells, 10 ug/ml mAb
Experimental: as §1, §2

[11] = biological target: T3, human Siglec-7 expressed on human cells …; test: FACS, human primary monocytes, 10 ug/ml mAb
Experimental: as §1, §2

Chain of human Siglec-7 expressed on human cells (primary monocytes, dendritic cells, macrophages, NK cells, microglia, U937 cells, human cells of humanized mice) (human) (Q9Y286 19-467): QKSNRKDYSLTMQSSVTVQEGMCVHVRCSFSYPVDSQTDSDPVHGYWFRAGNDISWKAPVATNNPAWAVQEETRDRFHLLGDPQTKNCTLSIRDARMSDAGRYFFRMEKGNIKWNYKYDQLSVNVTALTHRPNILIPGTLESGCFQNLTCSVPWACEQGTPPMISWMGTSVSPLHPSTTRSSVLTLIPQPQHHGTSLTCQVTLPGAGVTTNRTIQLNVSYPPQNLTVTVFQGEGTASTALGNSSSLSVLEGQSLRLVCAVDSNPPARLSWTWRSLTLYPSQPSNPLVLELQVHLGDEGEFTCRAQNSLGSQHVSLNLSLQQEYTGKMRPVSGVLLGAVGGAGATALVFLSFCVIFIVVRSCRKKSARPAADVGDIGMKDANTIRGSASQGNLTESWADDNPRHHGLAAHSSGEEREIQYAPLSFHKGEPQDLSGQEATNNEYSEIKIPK
T3 sequence (Q9Y286 19-467): as above
T1 sequence (Q9Y286 19-357 limits assumed): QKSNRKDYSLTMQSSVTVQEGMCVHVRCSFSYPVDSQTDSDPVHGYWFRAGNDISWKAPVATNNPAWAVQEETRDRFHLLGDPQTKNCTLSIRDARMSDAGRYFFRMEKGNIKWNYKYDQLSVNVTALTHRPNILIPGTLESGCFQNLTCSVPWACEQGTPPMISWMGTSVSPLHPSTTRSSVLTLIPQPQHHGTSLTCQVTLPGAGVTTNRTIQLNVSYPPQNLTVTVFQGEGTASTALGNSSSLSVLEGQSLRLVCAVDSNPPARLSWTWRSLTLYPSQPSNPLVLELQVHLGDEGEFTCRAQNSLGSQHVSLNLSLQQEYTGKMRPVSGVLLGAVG
T2 sequence (Q9Y286 19-357 limits assumed): as above

B1: anti-Siglec-7 antibody 1A12 (antibody, V domains shown)
VH: QVQLQQSGSELRSPGSSVKLSCKDFDSEVFPITYMNWVRQKPGHGFEWIGDILPSIGRTMYGEKFEDKATLDADTVSNTAYLELNSLTSEDSAIYYCARSEGYLLAYWGQGTLVTVSA
VL: DVZMTQTPLSLPVSLGDQASISCRSSQSLVHSTGNTYLHWYLQKPGQSPKLLIYKVSNRFSGVPDRFSGSGAGTDFTLKISRVEAEDLGVYFCSQNTHVPYTFGGGTKLEIK
notes: also called 1Al2
Kd [5]: 0.6 nM
Percent RBC Binding to Siglec-7 [6]: 16.5%
Percent Siglec-7 Surface Expression, DCs [7]: 100%
Percent Siglec-7 Surface Expression, Monocytes [7]: 39.9%
Percent Siglec-7 Surface Expression, U937 cells [7]: 87.3%
Percent Siglec-7 Surface Expression, Macrophages [8]: 13.4%
Percent Siglec-7 Surface Expression, Microglia [8]: 28.6%
Percent Siglec-7 Surface Expression, NK cells [8]: 136%
% Positive [9]: 99.4%
MFI [9]: 15800
% Positive [10]: 99.7%
MFI [10]: 6090
% Positive [11]: 99.3%
MFI [11]: 505

B3: anti-Siglec-7 antibody 4D7 (antibody, V domains shown)
VH: QVQLQQSGAELVKPGASVKLSCKTSGYTFTNYWINWVKQRPGQGLEWIGNIYSGSSRTNYNEKFKSKATLTVDTSSSTAYMQLSSLTSDDSAVYYCAREGLRAMDYWGQGTSVTVSS
VL: NZMTQFQKFMSTSVGDRVSLTCKASQKVGTNVAGFQQKPGHSPKAGIYSASTRHRGVQDRFTARGLGSDFILPITTZQLEDLAEYZCHQGNSVQYTFGGGTKLEIK
notes: Variable domains assembled from FR and CDR entries
Kd [5]: 2.9 nM
Percent RBC Binding to Siglec-7 [6]: 96.5%
Percent Siglec-7 Surface Expression, DCs [7]: 73.3%
Percent Siglec-7 Surface Expression, Monocytes [7]: 33.9%
Percent Siglec-7 Surface Expression, U937 cells [7]: 84.7%
Percent Siglec-7 Surface Expression, Macrophages [8]: 24.1%
Percent Siglec-7 Surface Expression, Microglia [8]: 44.3%
Percent Siglec-7 Surface Expression, NK cells [8]: 87.6%
% Positive [9]: 99.4%
MFI [9]: 4260
% Positive [10]: 26.1%
MFI [10]: 250
% Positive [11]: 90.5%
MFI [11]: 262

More lines, now with the values ahead:

Percent Siglec-7 Surface Expression, DCs [1]: 100%
Percent Siglec-7 Surface Expression, Macrophages [1]: 100%
Percent Siglec-7 Surface Expression, Microglia [1]: 84.2%
Percent Siglec-7 Surface Expression, Monocytes [1]: 99.4%
Percent Siglec-7 Surface Expression, NK cells [1]: 101%
Percent Siglec-7 Surface Expression, U937 cells [1]: 99.8%
% Positive [2]: 4.5%
MFI [2]: 134
% Positive [3]: 35.8%
MFI [3]: 648
% Positive [4]: 14%
MFI [4]: 141
Molecule: mIgG2a isotype control antibody

Kd [5]: 9.5 nM
Percent RBC Binding to Siglec-7 [6]: 89.3%
Percent Siglec-7 Surface Expression, DCs [7]: 19.3%
Percent Siglec-7 Surface Expression, Monocytes [7]: 8.1%
Percent Siglec-7 Surface Expression, U937 cells [7]: 75.2%
Percent Siglec-7 Surface Expression, Macrophages [8]: 5.7%
Percent Siglec-7 Surface Expression, Microglia [8]: 11.5%
Percent Siglec-7 Surface Expression, NK cells [8]: 50.7%
% Positive [9]: 99.8%
MFI [9]: 2380
% Positive [10]: 98.4%
MFI [10]: 845
% Positive [11]: 93.3%
MFI [11]: 278
B2: anti-Siglec-7 antibody 7E11 (antibody, V domains shown)
VH: QVQLKQSGPVLVAPSQSLSITCTVSGFSLSNYGVHWVRQFPGKGLEWLGVIWAGGITNYNSVLMSRLSISKDNSKSQVFLKMNSLQTDDTAMYYCAKQGGTSFSYWGQGTLVTVSA
VL: DIQMTQSPASQSASLGESVTITCLASQTIGTWLAWYQQKPGKSPQLLIYAATSLADGVPSRFSGSGSGTKFSFKISSLQAEDFVSYYCQQLYSTPYTFGGGTKLEIK
notes: as for B3
